Earlier results on 1 substance are cited in PMC3058932.

Data set [1] concerns the target GRP receptor (Rattus norvegicus) (UniProt P52500). Briefly: rat brain membrane binding.
The target of data set [2] is GRP receptor (Homo sapiens) (UniProt P30550). Kind of data set: PC-3 membrane binding.
Chain of UniProt P30550 (P30550 whole entry): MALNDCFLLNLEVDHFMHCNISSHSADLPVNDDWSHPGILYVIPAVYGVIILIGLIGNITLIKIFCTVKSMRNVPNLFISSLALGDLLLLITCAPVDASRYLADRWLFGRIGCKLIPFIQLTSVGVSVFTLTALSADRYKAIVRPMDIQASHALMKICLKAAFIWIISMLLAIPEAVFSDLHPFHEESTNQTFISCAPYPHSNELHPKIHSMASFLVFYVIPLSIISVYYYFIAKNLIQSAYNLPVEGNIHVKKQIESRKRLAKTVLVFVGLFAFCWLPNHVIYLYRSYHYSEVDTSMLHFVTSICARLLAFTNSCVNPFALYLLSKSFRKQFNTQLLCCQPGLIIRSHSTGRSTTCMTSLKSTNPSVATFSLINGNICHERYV

Chain of UniProt P52500 (P52500 whole entry): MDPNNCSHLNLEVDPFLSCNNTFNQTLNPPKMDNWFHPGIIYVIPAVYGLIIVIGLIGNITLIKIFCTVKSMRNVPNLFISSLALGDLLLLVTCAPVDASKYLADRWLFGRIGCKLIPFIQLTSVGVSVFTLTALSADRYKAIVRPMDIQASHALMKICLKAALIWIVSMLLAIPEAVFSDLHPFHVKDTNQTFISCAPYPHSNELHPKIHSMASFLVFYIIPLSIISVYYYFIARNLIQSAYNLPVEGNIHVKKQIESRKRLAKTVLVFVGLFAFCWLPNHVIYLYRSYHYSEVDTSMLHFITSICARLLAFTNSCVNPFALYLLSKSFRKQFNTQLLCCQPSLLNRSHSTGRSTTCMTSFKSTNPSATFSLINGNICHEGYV

For bombesin (from UniProt P84214), the Ki (as a rule, the equilibrium dissociation constant of an inhibitor or competing ligand from its target) is 4.3 nM in data set [1] and 1.7 nM in data set [2].
